The target of test [1] is T1, rhesus monkey PLD4 (rhesus monkey, UniProt Q96BZ4 1-506 (human entry)).
T1 construct: also called rhesus monkey PLD4 protein
T1 chain: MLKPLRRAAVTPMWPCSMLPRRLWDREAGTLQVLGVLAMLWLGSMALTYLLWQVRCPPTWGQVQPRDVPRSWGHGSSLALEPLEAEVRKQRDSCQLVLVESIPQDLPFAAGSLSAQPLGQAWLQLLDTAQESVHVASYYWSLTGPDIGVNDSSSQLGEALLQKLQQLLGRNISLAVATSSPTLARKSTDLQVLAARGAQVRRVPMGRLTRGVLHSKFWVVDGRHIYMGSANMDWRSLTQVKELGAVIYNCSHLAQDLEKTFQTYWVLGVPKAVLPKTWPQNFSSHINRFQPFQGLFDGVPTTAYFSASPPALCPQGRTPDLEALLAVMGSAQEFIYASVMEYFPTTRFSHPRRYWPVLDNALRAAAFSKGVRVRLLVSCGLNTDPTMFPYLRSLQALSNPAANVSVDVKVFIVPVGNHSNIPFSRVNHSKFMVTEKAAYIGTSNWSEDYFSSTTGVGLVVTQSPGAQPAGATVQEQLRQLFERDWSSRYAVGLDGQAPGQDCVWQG
The test is described as follows: FACS, hybridoma culture supernatant on rhesus monkey PLD4-293T transient transfectants (FIG. 17). A general note: Flow cytometry measures light scatter and fluorescence of single cells or particles in a stream.

Test [2] concerns the target T2, cynomolgus monkey PLD4 (cynomolgus monkey, UniProt Q96BZ4 1-506 (human entry)).
T2 construct: also called cynomolgus monkey PLD4 protein; cyno PLD4
T2 chain: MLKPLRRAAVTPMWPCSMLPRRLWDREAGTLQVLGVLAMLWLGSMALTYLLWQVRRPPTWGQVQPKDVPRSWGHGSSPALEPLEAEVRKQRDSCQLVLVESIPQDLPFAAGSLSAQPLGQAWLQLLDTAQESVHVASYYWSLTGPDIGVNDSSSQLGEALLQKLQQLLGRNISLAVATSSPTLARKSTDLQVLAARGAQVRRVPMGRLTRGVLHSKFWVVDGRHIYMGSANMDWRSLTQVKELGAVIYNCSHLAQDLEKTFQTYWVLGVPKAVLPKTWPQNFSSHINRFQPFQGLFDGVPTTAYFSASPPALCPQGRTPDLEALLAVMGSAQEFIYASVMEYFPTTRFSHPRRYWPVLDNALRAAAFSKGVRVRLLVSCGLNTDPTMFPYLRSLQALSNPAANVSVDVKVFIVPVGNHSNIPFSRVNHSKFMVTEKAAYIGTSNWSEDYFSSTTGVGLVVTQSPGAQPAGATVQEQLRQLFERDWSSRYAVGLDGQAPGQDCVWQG
The test is described as follows: FACS on cynomolgus monkey PLD4-CT125 cells (FIG. 16).

In test [3] the target is T3, human PLD4 (phospholipase D4) protein (UniProt Q96BZ4 1-506).
T3 chain: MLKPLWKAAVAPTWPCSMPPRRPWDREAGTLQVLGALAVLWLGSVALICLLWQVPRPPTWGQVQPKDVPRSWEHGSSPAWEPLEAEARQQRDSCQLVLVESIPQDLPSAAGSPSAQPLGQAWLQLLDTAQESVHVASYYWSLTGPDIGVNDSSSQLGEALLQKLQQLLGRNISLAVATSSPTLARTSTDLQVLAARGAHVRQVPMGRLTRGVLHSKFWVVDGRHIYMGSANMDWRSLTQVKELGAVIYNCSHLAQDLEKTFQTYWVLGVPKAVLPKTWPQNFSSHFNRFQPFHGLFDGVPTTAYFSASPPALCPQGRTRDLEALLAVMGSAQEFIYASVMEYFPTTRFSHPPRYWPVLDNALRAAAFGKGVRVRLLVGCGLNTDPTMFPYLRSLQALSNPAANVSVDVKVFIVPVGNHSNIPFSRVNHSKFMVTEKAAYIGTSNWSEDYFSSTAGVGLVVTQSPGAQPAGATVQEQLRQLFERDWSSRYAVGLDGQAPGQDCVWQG
The test is described as follows: binding to human PLD4-CT125 stable cells; apparent Kd.

For test [4], the target named is T4, human PLD4 (phospholipase D4) protein (human, UniProt Q96BZ4 1-506).
T4 construct: Type II transmembrane protein, 506 a.a; also called hPLD4; HuPLD4
T4 sequence: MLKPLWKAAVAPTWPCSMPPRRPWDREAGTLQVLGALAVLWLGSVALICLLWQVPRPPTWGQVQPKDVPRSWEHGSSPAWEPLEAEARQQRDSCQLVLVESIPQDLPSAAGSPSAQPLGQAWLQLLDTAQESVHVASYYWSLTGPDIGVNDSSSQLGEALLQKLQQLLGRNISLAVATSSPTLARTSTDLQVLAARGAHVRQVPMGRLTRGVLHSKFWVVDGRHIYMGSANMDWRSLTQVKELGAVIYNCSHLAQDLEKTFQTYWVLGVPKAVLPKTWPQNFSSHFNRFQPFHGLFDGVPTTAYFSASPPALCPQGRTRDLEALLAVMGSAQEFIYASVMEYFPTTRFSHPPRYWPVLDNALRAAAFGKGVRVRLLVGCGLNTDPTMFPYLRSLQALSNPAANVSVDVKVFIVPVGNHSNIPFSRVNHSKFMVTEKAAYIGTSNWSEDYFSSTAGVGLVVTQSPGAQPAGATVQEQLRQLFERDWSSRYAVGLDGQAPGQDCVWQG
In words: FACS titration (0.001 to 30 µg/mL) of purified antibody on human PLD4-CT125 cells, positive cell frequency fitted with GraphPad Prism (FIG. 19). On the procedure: For binding ability of the purified antibody, human PLD4-CT125 expression stable cell strain was reacted to nearly 100% of the positive staining rate at low concentration to high concentration (0.001 μg/mL to 30 μg/mL) of purified PLD4 antibody concentration. The frequency of staining positive cell and the antibody were data-analyzed using Graph Pad Prism version 5 software, and the dissociation constant molar concentration (Kd value) was computed in nM unit.

Test [5] has as its target T2, cynomolgus monkey PLD4. The test is described as follows: FACS on 293T transfectant (FIG. 9).
The target in another test is T5, human PLD3 (human, UniProt Q8IV08 1-490).
T5 construct: also called human PLB3 [sic]
T5 sequence: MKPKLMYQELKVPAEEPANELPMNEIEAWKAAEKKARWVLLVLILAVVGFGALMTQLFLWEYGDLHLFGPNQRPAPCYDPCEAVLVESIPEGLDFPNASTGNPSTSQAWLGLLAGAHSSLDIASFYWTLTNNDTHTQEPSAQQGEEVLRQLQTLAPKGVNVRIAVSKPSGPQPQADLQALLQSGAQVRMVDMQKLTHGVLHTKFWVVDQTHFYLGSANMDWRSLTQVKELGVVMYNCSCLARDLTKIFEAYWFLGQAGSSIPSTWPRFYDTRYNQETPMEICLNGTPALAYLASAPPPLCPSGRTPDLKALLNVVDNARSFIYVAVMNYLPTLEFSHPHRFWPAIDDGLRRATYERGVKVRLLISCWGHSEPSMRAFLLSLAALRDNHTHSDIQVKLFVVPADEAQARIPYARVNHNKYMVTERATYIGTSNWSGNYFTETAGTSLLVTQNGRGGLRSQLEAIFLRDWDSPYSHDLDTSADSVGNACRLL
The test is described as follows: FACS on 293T transfectants (FIG. 8).

The next test has as its target T6, human PLD5 (human, UniProt Q8N7P1 92-536).
T6 sequence: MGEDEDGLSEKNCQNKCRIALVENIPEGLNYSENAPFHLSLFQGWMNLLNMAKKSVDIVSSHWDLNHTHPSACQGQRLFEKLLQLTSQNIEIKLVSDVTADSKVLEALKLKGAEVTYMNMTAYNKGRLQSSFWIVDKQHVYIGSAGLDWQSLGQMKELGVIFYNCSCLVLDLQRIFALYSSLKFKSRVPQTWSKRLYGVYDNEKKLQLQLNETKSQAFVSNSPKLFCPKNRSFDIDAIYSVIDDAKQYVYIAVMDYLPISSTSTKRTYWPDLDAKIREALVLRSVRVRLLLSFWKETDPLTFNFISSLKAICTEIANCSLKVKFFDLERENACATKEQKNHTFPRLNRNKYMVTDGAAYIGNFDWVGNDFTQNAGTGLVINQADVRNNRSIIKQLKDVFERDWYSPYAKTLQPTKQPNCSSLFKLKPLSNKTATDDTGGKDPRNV
The test is described as follows: FACS on 293T transfectants (FIG. 8).

The target in test [6] is T2, cynomolgus monkey PLD4. In words: FACS, hybridoma culture supernatant on cynomolgus monkey PLD4-CT125 cells; non-binding implied (8C11 is not among the seven).
The target of test [7] is T1, rhesus monkey PLD4. In words: FACS, hybridoma culture supernatant on rhesus monkey PLD4-293T transient transfectants; non-binding implied (8C11 is not among the seven).
In test [8] the target is T1, rhesus monkey PLD4. The test is described as follows: FACS, hybridoma culture supernatant on rhesus monkey PLD4-293T transient transfectants; non-binding implied (10C3 is not among the seven).
Test [9] concerns the target T2, cynomolgus monkey PLD4. The test is described as follows: FACS, hybridoma culture supernatant on cynomolgus monkey PLD4-CT125 cells; non-binding implied (10C3 is not among the seven).
For test [10], the target named is T2, cynomolgus monkey PLD4. In words: FACS, hybridoma culture supernatant on cynomolgus monkey PLD4-CT125 cells; non-binding implied (11D10 is not among the seven).
Test [11] deals with T1, rhesus monkey PLD4. In words: FACS, hybridoma culture supernatant on rhesus monkey PLD4-293T transient transfectants; non-binding implied (11D10 is not among the seven).

B1: anti-PLD4 mouse 3B4 antibody (antibody, V domains shown)
VH: EVQLQQSGTVLSRPGASVTMSCKASGDSFTTYWMHWVKQRPGQGLEWIGAIYPGNSETSYNQKFKGKAKLTAVTSASTAYMEFTSLTNEDSAVYYCTGGYSDFDYWGQGTTLTVSS
VL: DILMTQSPSSMSVSLGDTVSITCHASQGIRSNIGWLQQKPGKSFKGLIFHGTNLEDGVPSRFSGRGSGADYSLTINSLESEDFADYYCVQYVQFPPTFGSGTKLEIRR
notes: Tested as hybridoma culture supernatant and as protein A purified antibody
As to B1, the binding result in the test with rhesus monkey PLD4 [1] and with cynomolgus monkey PLD4 [2] was “binds” throughout. Moreover, the Kd is 2.12 nM in [3] and above 1 nM in [4].

B2: anti-PLD4 chimeric 11G9 antibody (antibody, human IgG1, kappa, V domains shown)
VH: QVQLQQPGAELVKPGTSVKMSCKASGYTFTSYWMHWVKQRPGQGLEWIGDIYPGSDSTNYNEKFKSKATLTVDTSSSTAYMQLSSLTSEDSAVYYCARGGWLDAMDYWGQGTSVTVSS
VL: DIQMTQTTSSLSASLGDRVTISCRASQDISNYLNWYQQKPDGTVKLLIYYTSRLHSGVPSRFSGSGSGTDYSLTISNLEQEDIATYFCQQGNTLPWTFGGGTKLEIKR
notes: Mouse 11G9.6 variable regions on human IgG1 heavy and human Ig kappa light constant regions; also called ch11G9.6; ch11G9.6 antibody
For the molecule B2, the binding result was “binds” with cynomolgus monkey PLD4 [5], “no binding” with human PLD3 and “no binding” with human PLD5.

B3: anti-PLD4 mouse 8C11 antibody (antibody, mouse IgG2b, V domains shown)
VH: QVQLQQSGAELVKPGASVKLSCKASGYTFTSYYLYWVRQRPGQGLEWIGLINPTNSDTIFNEKFKSKATLTVDKSSSTAYMQLSSLTSEDSAVYYCTREGGYGYGPFAYWGQGTLVTVSA
VL: DVVMTQTPLSLPVSLGDQASISCTSSQTLVHSNGNTYLHWYLQKPGQSPKLLIYKVSNRFSGVPDRFSGSGSGTDFTLKISRVEAEDLGVYFCSHSTHVPFTFGSGTKLEIKR
notes: Tested as hybridoma culture supernatant and as purified antibody
For the molecule B3, the binding result in the test with cynomolgus monkey PLD4 [6] and with rhesus monkey PLD4 [7] was “no binding” throughout. Besides, the Kd in test [3] was 0.085 nM; in test [4], at most 1 nM.

B4: anti-PLD4 mouse 10C3 antibody (antibody, mouse IgG2a, V domains shown)
VH: EVQLVESGGDLVRPGGSLKLSCAASGFSFSSYGMSWFRQTPDKRLEWVATISSGGSYIYYPESVKGRFTISRDNARNILYLQMSSLKSEDTAMYYCVRLYGGRRGYGLDYWGQGTSVTVSS
VL: EIVMTQAAFSNPVTLGTSASISCRSSKSLLHSDGITYLYWYLQKPGQSPQLLIYQMSNLASGVPDRFSSSGSGTDFTLRISRVEAEDVGVYYCAQNLELYTFGGGTKLEIKR
notes: as for B3
As to B4, the binding result with rhesus monkey PLD4 [8] and in the test with cynomolgus monkey PLD4 [9] was “no binding” each time. Besides, the Kd was 0.228 nM in test [3] and at most 1 nM in test [4].

B5: anti-PLD4 mouse 11D10 antibody (antibody, mouse IgG2b, V domains shown)
VH: EVQLVESGGDLVRPGGSLKLSCAASGFSFSSYGMSWFRQTPDKRLEWVATISSGGSYIYYPESVKGRFTISRDNARNILYLQMSSLKSEDTAMYYCVRLYGGRRGYGLDYWGQGTSVTVSS
VL: EIVMTQAAFSNPVTLGTSASISCRSSKSLLHSDGITYLYWYLQKPGQSPQLLIYQMSNLASGVPDRFSSSGSGTDFTLRISRVEAEDVGVYYCAQNLELYTFGGGTKLEIKR
notes: as for B3
On to B5, for which the binding result with cynomolgus monkey PLD4 [10] and with rhesus monkey PLD4 [11] was “no binding” throughout. Also, the Kd was 0.192 nM in test [3] and at most 1 nM in test [4].
